In article PMC3859194:

Tests used:
[1] = target: 6His-PopZΔ172–177 (Caulobacter crescentus); experiment: SEC-MALLS
[2] = target: 6His-PopZ P146A (Caulobacter crescentus); experiment: SEC-MALLS

Row | Substance | stoichiometry N [1] | stoichiometry N [2]
1 | 6His-PopZΔ172–177 (domain or fragment) | 6 | –
2 | 6His-PopZ P146A (natural protein) | – | 3
